Results from US20080274977A1.

Tests used:
[1] = target: N-type calcium channel (receptor binding screen of Example 1)
[2] = target: T1, chemokine CXCR2 (IL-8Rb), P25025
T1 chain: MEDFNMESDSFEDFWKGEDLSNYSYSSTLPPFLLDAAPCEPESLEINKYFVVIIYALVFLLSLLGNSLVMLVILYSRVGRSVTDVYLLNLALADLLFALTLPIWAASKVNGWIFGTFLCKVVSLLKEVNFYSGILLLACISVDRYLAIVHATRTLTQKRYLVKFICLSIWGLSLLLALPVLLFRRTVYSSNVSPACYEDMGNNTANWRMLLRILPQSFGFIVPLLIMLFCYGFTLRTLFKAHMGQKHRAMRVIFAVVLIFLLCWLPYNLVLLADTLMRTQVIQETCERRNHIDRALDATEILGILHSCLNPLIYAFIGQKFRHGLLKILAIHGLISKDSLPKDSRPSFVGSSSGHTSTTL

Molecule | % inhibition [1] | % inhibition [2]
Tat-NR2B9c (peptide) | 100% | 
YGRKKRRQRRRKLSSIESDV (modifications not checked) [Tat-NR2B9c] |  | 80%
